We go through 8 molecules from PMC4027202.

For series [1], the target named is T1, Toscana virus nucleoprotein N (Toscana virus, UniProt P21701 1-253).
T1 sequence: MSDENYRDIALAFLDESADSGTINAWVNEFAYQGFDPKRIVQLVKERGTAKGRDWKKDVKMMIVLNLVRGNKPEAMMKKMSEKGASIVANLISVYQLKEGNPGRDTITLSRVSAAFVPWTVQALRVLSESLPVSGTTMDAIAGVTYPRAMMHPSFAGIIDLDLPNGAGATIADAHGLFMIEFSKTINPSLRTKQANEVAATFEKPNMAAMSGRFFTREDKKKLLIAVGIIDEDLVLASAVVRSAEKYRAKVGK
Nature of the series: ITC; n=0.49; ITC: 20 mM Tris pH 7.5, 150 mM NaCl, 8 C; 400 uM RNA titrated into 30 uM apo N. Particulars: protein: recombinant; tags: N-terminal His6; chain copies: 6; single strand. A general note: ITC needs no label: the signal is the heat of the interaction.

Series [2] deals with the molecule itself. Nature of the series: crystal structure; apo (RNA-free) N; 6.5% PEG 3350, 0.1-M sodium malonate, pH 4.5-5.2; space group P6, 12 molecules in the asymmetric unit, 3.3 Å.
Series [3] concerns the molecule itself. Nature of the series: crystal structure; N reconstituted with 9-mer RNA oligo1 (UGUGUUUCU); 11% PEG 3350, 0.1-M sodium malonate, pH 4.5-5.2; space group P1, 24 N and 12 RNA in the asymmetric unit, 2.6 Å.
The target of series [4] is T2, RVFV nucleoprotein N (Rift Valley fever virus, UniProt D3K5I7 1-245).
T2 sequence: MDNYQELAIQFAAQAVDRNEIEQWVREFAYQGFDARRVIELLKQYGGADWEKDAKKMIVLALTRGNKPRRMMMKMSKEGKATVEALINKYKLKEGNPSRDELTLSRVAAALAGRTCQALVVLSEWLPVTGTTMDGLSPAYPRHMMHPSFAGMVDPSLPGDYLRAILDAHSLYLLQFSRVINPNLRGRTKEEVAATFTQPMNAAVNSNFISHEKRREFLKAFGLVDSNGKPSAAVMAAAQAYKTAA
Nature of the series: ITC; n=0.70; main text gives 420 nM; ITC: 20 mM Tris pH 7.5, 150 mM NaCl, 8 C; […]. Particulars: protein: recombinant; single strand.

The target in series [5] is T1, Toscana virus nucleoprotein N. Nature of the series: ITC; n=0.43; ITC: 20 mM Tris pH 7.5, 150 mM NaCl, 8 C; 400 uM RNA titrated into 30 uM apo N. Particulars: protein: recombinant; tags: N-terminal His6; chain copies: 6; single strand.
For series [6] the target is unchanged. Nature of the series: ITC; n=0.40; ITC: 20 mM Tris pH 7.5, 150 mM NaCl, 8 C; 400 uM RNA titrated into 30 uM apo N. To be noted: protein: recombinant; tags: N-terminal His6; chain copies: 6; single strand.
Series [7] has the same target. Nature of the series: ITC; n=0.50; ITC: 20 mM Tris pH 7.5, 150 mM NaCl, 8 C; 400 uM RNA titrated into 30 uM apo N. Particulars: protein: recombinant; tags: N-terminal His6; chain copies: 6; single strand.
The target is the same in series [8]. Nature of the series: ITC; n=0.51; ITC: 20 mM Tris pH 7.5, 150 mM NaCl, 8 C; 400 uM RNA titrated into 30 uM apo N. To be noted: protein: recombinant; tags: N-terminal His6; chain copies: 6; single strand.
The target is the same in series [9]. Nature of the series: ITC; n=0.52; ITC: 20 mM Tris pH 7.5, 150 mM NaCl, 8 C; 400 uM RNA titrated into 30 uM apo N. To be noted: protein: recombinant; tags: N-terminal His6; chain copies: 6; single strand.

A word on the Kd: it is the constant that tells how readily two partners part at equilibrium. With UAUGUUUCU (ssRNA) [oligo4 (G2A mutant of oligo1)], the Kd in series [1] was 290 ± 40 nM.

B1: Toscana virus nucleoprotein N (natural protein)
chain: T1 sequence
notes: Hexameric ring in both crystal forms
Broadly, the stoichiometry N is a count of units in the complex or per binding partner. Turning to B1, the “stoichiometry N” value in series [2] and in series [3] was 6 each time. For UGUGUUUCU (ssRNA) [oligo1 (reverted 3' consensus 9-mer)], the Kd in [4] was 400 ± 100 nM; in [1], 260 ± 20 nM. Consider UCUUUGUGU (ssRNA) [oligo2 (3' genomic consensus)], for which the Kd in series [5] was 560 ± 70 nM. Regarding UUUUUUUUU (ssRNA) [oligo5 (polyU 9-mer)], the Kd in series [6] was 360 ± 40 nM. UGUGUU (ssRNA) [oligo8 (6-mer from oligo1)]: in [7], the Kd is 8000 ± 900 nM. In the case of UGUGUUUC (ssRNA) [oligo6 (8-mer from oligo1)], the Kd in [8] was determined as 710 ± 30 nM. Take UGUGUUU (ssRNA) [oligo7 (7-mer from oligo1)]: in series [9], the Kd is 2700 ± 200 nM.
